Measurements published in PMC11322871, “AlphaFold2 assists in providing novel mechanistic insights into the interactions among the LUBAC subunits” (Acta Biochimica et Biophysica Sinica, 2024).
Values belong to the molecule of their own block, whether it stands above or below them.

B1: HOIL-1L-UBL domain (residues 55-135) (domain or fragment, human, UniProt Q9BYM8-1 55-135, looked up)
chain: IRLWVSVEDAQMHTVTIWLTVRPDMTVASLKDMVFLDYGFPPVLQQWVIGQRLARDQETLHSHGVRQNGDSAYLYLLSARN
notes: HOIL-1L, human, UBL domain, residues 55-135; also called HOIL-UBL

Assays:
[1] = biological target: HOIP-UBA domain (residues 466-629) (human) (UniProt Q96EP0); test: SPR; Biacore T200; the HOIL-1L and SHARPIN constructs mixed at the same concentration and incubated at 16°C for 2 h before analysis against HOIP-UBA (466-630); who was immobilised is not stated
[2] = biological target: B1; test: ITC; MicroCal PEAQ-ITC; cell and syringe not stated
[3] = biological target: B1; test: SPR; Biacore T200; HOIL-1L-UBL immobilised on the sensor chip, HOIP fragments flowed over
HOIP (466-695) [4] = biological target: T1, HOIP (466-695) (human, UniProt Q96EP0 466-695); test: ITC; MicroCal PEAQ-ITC; cell and syringe not stated; details: both partners purified
T1 construct: HOIP, human, residues 466-695 (HOIP-UBA together with HOIP 629-695); also called HOIP domain (residues 466-695)
T1 sequence (looked up): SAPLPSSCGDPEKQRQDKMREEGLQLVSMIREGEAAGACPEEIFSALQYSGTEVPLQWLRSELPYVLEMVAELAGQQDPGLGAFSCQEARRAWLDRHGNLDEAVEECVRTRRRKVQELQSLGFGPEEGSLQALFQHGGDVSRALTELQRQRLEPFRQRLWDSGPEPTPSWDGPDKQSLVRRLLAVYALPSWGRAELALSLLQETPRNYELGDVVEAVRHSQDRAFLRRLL

HOIP (466-695) [5] = biological target: T1, HOIP (466-695); test: SPR; Biacore T200; HOIL-1L-UBL immobilised on the sensor chip, HOIP fragments flowed over; details: both partners purified

Molecule: HOIL-1L (5-135) and SHARPIN (127-309), containing the LTM domain, mixed before SPR (from UniProt Q9BYM8-1 5-135; Q9H0F6 127-309) (complex)
- Kd [1]: 496 nM

Molecule: HOIL-1L-UBL and SHARPIN-UBL without the LTM domain, mixed before SPR (from UniProt Q9BYM8-1 55-135; Q9H0F6 206-309) (complex)
- Kd [1]: 72.1 nM

Molecule: B1
- Kd (HOIP (466-695) [4]): 800 ± 200 nM
- Kd (HOIP (466-695) [5]): 359 nM

Continued, values first:

- Kd [2]: 4300 nM
- Kd [3]: 543 nM
Molecule: HOIP-UBA domain (residues 466-629) (from UniProt Q96EP0 466-629) (domain or fragment)

- Kd ([3]; both partners purified): 989 nM
B2: HOIP (629-695) (domain or fragment)
chain: PEPTPSWDGPDKQSLVRRLLAVYALPSWGRAELALSLLQETPRNYELGDVVEAVRHSQDRAFLRRLL
